# Data published in patent US20060094101A1 (Pfizer, published 2006).
# B1: human polyhomeotic 2 (HPH2), yeast two-hybrid library clone (other, not shown: large carriers)
# chain: MCLRGGCSPRAPAAAPQPRPPPALPPRPRAPVPASRPGRPLLTPARPCGRMRRGSPGPRLGGSRGERRRPAGRDPARVGPGQGLRRPARPGPAAWTETGQGIVHALTDLSIPGMTSGNGNSASSIAGTAPQNGENKPPQAIVKPQILTHVIEGFVIQEGADVSRWDARLLVGNLKKKYAQGFLPEKLPQQDHTTTTDSEMEEPYLQESKEEGAPLKLKCELCGRVDFAYKFKRSKRFCSMACAKRYNVGCTKRVGLFHSDRSKLQKAGAATHNRRRPAKPVCHHLPRIPRSSQQALCPFRLLLLCVTHSQEDSSRCSDNSSYEEPLSPISASSSTSAGDKASGTWSSPTCICGTWWAWDTTSCQVSHQVNVEDVYEFIRSLPGCQEIAEEFRAQEIDGQALLLLKEDHLMSVMNIKLGPALKIYARISMLKDS
# notes: Clone from a pretransformed human bone marrow cDNA library; also called human polyhomeotic homolog 2
# B2: Lamin (Clontech), yeast two-hybrid control bait (other, UniProt P04386 1-147, looked up)
# chain: MKLLSSIEQACDICRLKKLKCSKEKPKCAKCLKNNWECRYSPKTKRSPLTRAHLTEVESRLERLEQLFLLIFPREDLDMILKMDSLQDIKALLTGLFVQDNVNKDAVTDRLASVETDMPLTLRQHRISATSSSEESSNKGQRQLTVSSEEVVSREVSGIKAAYEAELGDARKTLDSVAKERARLQLELSKVREEFKELKARNTKKEGDLIAAQARLKDLEALLNSKEAALSTALSEKRTLEGELHDLRGQVAKLEAALGEAKKQLQDEMLRRVDAENRLQTMKEELDFQKNIYSEELRETKRRHETRLVEID
# notes: Specificity control bait; also called lamin (L)
# B3: V5-tagged Shc (V5-p66 Shc A) (other, not shown: small tags and cut ends)
# chain: MDLLPPKPKYNPLRNESLSSLEEGASGSTPPEELPSPSASSLGPILPPLPGDDSPLPCVPSFPRMSNLKLANPAGGPWGLKGSQERLLKMGKGVQGQPFGLRPLAPPPDMNKLSGGGGRRTRVEGGQLGGEEWTRHGSFVNKPTRGWLHPNDKVMGPGVSYLVRYMGCVEVLQSMRALDFNTRTQVTREAISLVCEAVPGAKGATRRRKPCSRPLSSILGRSNLKFAGMPITLTVSTSSLNLMAADCKQIIANHHMQSISFASGGDPDTAEYVAYVAKDPVNQRACHILECPEGLAQDVISTIGQAFELRFKQYLRNPPKLVTPHDRMAGFDGSAWDEEEEEPPDHQYYNDFPGKEPPLGGVVDMRLREGAARPTLPSAQMSSHLGATLPIGQHAAGDHEVRKQMLPPPPCPGRELFDDPSYVNIQNLDKARQAGGGAGPPNPSLNGSAPRDLFDMKPFEDALRVPPPPQSMSMAEQLQGEPWFHGKLSRREAEALLQLNGDFLVRESTTTPGQYVLTGLQSGQPKHLLLVDPEGVVRTKDHRFESVSHLISYHMDNHLPIISAGSELCLQQPVDRKV
# B4: src homology and collagen (Shc; Shc A), yeast two-hybrid library clone (other, not shown: large carriers)
# chain: B3 chain
# notes: Clone from a pretransformed human bone marrow cDNA library
# B5: p53, yeast two-hybrid control bait (other, UniProt P04386 1-147, looked up)
# chain: MKLLSSIEQACDICRLKKLKCSKEKPKCAKCLKNNWECRYSPKTKRSPLTRAHLTEVESRLERLEQLFLLIFPREDLDMILKMDSLQDIKALLTGLFVQDNVNKDAVTDRLASVETDMPLTLRQHRISATSSSEESSNKGQRQLTVSPVTETPGPVAPAPATPWPLSSFVPSQKTYQGNYGFHLGFLQSGTAKSVMCTYSPPLNKLFCQLAKTCPVQLWVSATPPAGSRVRAMAIYKKSQHMTEVVRRCPHHERCSDGDGLAPPQHLIRVEGNLYPEYLEDRQTFRHSVVVPYEPPEAGSEYTTIHYKYMCNSSCMGGMNRRPILTIITLEDSSGNLLGRDSFEVRVCACPGRDRRTEEENFRKKEVLCPELPPGSAKRALPTCTSASPPQKKKPLDGEYFTLKIRGRKRFEMFRELNEALELKDAHATEESGDSRAHSSYLKTKKGQSTSRHKKTMVKKVGPDSD
# notes: Specificity control bait
# Assays:
# [1] = target: B5; assay: yeast two-hybrid, growth on SD/-Ade/-His/-Leu/-Trp and blue color on SD/-Leu/-Trp X-α-GAL
# Text: (§1) Independent sequences were transformed into bacteria (DH5 α) from which DNA was subsequently isolated. Next, the DNA was transformed into yeast strain AH109. […] Each independent sequence strain transformed in AH109 was mated with Y187 yeast transformed with each of the three baits. Independent clones which interacted with MK2 and MK2 K93R, but not with empty vector pGBKT7, TPL2, p53, or Lamin, as assayed by their growth on SD/-Ade/-His/-Leu/-Trp and blue color on SD/-Leu/-Trp X-α-GAL, were identified as clones which included DNA inserts encoding specific MK2 interacting proteins (FIG. 9A). […] One protein encoded by an independent DNA sequence characterized was “similar to smoothelin” (STS).
# [2] = target: T1, TPL2, yeast two-hybrid control bait (yeast, UniProt P04386 1-147; P41279 1-467, limits assumed); assay: as above
# T1 construct: Specificity control bait
# Text: as §1
# [3] = target: B2; assay: yeast two-hybrid, growth and color on selective media
# Text: as §1
# [4] = target: T2, similar to smoothelin (STS), yeast two-hybrid library clone (yeast; human, UniProt P53814 2-868); assay: as above
# T2 construct: Clone from a pretransformed human bone marrow cDNA library
# T2 sequence (P53814 other isoform, or with tags, fused parts or gaps limits assumed): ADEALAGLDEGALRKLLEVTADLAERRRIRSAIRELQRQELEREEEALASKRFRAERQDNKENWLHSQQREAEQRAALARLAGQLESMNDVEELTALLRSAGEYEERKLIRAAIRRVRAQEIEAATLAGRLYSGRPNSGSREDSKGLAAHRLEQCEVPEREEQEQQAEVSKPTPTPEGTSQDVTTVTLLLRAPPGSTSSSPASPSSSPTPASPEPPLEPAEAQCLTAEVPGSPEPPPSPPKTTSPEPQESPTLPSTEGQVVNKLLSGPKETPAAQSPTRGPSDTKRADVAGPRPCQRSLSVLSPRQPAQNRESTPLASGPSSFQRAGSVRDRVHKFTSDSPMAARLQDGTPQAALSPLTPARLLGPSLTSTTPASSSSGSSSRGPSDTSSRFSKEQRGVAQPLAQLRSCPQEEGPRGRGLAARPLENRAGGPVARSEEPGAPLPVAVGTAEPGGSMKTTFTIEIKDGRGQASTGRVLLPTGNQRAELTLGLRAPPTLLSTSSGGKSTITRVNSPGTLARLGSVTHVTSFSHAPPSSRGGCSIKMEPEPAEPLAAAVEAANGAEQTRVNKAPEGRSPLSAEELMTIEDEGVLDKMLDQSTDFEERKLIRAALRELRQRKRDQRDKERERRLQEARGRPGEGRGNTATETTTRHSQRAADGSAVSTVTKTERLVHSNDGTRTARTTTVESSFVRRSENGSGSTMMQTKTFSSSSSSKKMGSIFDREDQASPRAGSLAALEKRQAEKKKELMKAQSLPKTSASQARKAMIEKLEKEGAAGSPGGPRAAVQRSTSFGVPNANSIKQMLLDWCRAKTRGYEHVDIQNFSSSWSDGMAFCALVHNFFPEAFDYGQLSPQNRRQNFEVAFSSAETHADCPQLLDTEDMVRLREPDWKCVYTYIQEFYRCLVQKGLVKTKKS
# Text: as §1
# MYC-tagged MK2 = MYC-tagged MK2 (UniProt P49137 1-400, limits assumed); assay: cell-based or functional assay
# MYC-tagged MK2, sequence (P49137 whole entry): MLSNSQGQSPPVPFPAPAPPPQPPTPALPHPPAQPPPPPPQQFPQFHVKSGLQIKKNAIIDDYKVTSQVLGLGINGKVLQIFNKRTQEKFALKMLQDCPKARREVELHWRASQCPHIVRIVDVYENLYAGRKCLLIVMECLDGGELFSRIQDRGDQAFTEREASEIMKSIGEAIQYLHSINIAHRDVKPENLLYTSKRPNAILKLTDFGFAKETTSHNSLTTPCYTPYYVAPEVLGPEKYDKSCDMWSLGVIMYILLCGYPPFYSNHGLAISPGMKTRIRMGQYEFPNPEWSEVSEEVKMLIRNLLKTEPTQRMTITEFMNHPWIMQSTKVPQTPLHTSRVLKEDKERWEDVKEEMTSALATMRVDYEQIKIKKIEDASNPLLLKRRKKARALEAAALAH
# [5] = target: T2, similar to smoothelin (STS), yeast …; assay: yeast two-hybrid, growth on SD/-Ade/-His/-Leu/-Trp and blue color on SD/-Leu/-Trp X-α-GAL
# Text: as §1
Binder,binding result [1],binding result [2],binding result [3],other results
B1,no binding,no binding,no binding,
B2,,,,binding result [4]: no binding
B3,,,,"TNF-α biosynthesis (secreted TNF-α by ELISA) in LPS-stimulated RAW264.7 cells (MYC-tagged MK2): 1.5 fold; basal pHsp 27 levels in HeLa cells (immunoblot, densitometry) (MYC-tagged MK2): 3 fold"
B4,no binding,no binding,no binding,
B5,,,,binding result [5]: no binding
